According to patent US20050203288A1 (DEUTSCHES KREBSFORSCHUNGSZENTRUM STIFUNG DES OFFENTLICHEN …, published 2005):

T1: Livin-β (UniProt Q96CA5-2 1-280, limits assumed)
T1 construct: the beta isoform is meant; also called Livin (beta)
T1 sequence (looked up): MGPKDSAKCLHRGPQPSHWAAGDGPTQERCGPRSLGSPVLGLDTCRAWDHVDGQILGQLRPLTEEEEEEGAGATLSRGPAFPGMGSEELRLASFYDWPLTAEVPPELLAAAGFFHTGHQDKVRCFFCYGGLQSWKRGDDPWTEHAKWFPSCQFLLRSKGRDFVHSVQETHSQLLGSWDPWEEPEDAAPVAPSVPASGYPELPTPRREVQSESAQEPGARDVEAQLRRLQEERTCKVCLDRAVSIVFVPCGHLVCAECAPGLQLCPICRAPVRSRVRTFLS


Columns and labels:
Experiment in all cases: yeast two-hybrid
c-IAP-1 = target: T2, c-IAP-1 (UniProt Q13490 1-618, limits assumed)
T2 construct: construct not described

Livin-β = target: T1, Livin-β
c-IAP-2 = target: T3, c-IAP-2 (UniProt Q13489 1-604, limits assumed)
T3 construct: construct not described; also called c-LAP-2

XIAP = target: T4, XIAP (UniProt P98170 1-497, limits assumed)
T4 construct: construct not described

Survivin = target: T5, Survivin (UniProt O15392 1-142)
T5 construct: construct not described; also called surivin
T5 sequence (O15392 whole entry): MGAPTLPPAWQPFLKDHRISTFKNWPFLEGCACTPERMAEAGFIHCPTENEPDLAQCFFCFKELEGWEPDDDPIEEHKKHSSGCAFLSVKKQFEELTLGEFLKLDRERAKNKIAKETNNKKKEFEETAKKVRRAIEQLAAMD

T2 sequence (Q13490 whole entry): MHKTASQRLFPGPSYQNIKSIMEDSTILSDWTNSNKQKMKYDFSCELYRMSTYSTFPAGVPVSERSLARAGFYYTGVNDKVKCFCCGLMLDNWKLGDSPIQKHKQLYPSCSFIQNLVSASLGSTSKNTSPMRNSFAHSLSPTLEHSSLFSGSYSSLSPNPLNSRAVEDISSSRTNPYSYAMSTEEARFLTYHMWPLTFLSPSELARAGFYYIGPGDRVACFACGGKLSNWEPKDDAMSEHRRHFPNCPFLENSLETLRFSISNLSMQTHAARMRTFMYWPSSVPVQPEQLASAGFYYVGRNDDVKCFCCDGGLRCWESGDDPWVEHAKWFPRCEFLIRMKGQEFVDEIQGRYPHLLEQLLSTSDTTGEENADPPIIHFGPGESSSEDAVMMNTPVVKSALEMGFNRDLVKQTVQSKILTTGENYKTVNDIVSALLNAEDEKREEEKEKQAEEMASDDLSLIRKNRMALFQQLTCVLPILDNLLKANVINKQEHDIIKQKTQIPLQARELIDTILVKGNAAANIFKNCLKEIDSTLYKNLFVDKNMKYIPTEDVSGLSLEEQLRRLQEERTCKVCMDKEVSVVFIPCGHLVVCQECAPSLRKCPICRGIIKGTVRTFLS
T3 sequence (Q13489 whole entry): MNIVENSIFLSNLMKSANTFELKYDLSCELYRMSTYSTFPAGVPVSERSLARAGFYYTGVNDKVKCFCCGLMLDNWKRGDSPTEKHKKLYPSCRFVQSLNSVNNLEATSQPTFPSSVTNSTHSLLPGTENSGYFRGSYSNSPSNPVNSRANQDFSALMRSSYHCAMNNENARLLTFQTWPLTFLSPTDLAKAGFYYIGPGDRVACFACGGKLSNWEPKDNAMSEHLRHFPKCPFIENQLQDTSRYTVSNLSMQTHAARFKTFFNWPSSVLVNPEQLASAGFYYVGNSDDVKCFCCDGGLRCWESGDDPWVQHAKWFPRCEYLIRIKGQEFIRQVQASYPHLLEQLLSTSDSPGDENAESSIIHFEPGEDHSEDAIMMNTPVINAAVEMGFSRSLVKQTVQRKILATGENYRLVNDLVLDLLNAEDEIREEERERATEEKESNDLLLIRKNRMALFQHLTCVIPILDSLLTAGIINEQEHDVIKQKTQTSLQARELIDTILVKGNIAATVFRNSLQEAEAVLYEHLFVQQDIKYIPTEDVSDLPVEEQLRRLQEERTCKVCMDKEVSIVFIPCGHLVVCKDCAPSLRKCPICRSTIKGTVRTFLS
T4 sequence (P98170 whole entry): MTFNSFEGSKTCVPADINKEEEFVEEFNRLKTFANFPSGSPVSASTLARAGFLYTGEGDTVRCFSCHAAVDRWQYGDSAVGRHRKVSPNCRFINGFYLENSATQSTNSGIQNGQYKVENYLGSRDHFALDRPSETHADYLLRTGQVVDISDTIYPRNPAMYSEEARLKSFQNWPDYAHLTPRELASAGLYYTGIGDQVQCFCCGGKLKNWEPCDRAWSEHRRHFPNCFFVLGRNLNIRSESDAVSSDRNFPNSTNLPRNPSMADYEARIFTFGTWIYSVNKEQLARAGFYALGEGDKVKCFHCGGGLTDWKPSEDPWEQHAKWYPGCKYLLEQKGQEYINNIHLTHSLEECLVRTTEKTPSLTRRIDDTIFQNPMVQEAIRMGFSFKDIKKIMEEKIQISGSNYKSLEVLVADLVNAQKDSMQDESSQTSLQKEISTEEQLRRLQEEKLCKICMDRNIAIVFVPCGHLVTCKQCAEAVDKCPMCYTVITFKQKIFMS

Row | Binder | binding result (c-IAP-1) | binding result (Livin-β) | binding result (c-IAP-2) | binding result (XIAP) | binding result (Survivin)
1 | GPYPYLRILLVQKIACVRRALWVLRSAEIYES (peptide, not shown: large carriers, that construct is not described for linear peptides) [peptide number 90] | no binding | binds | no binding | no binding | no binding
2 | GSRFRVFVCSLFSFLSGRGGGVVVLRSAEIYES (peptide, not shown: large carriers, that construct is not described for linear peptides) [peptide number 5] | no binding | binds | no binding | no binding | no binding
3 | GPFKRCHERLVAFARCWFMWSMVLRSAEIYES (peptide, not shown: large carriers, that construct is not described for linear peptides) [peptide number 7] | no binding | binds | no binding | no binding | no binding
4 | GSGCGCFVRGRIVRIRCVILLLRVLRSAEIYES (peptide, not shown: large carriers, that construct is not described for linear peptides) [peptide number 15] | no binding | binds | no binding | no binding | no binding
5 | GPHSSAHDRIWLRVRGLRIILLVLRSAEIYES (peptide, not shown: large carriers, that construct is not described for linear peptides) [peptide number 16] | no binding | binds | no binding | no binding | no binding
6 | GPWWKDRGVLVRLCVLRLVVGVVLRSAEIYES (peptide, not shown: large carriers, Mammalian two-hybrid construct not described for linear peptides) [peptide number 54] | no binding | binds | no binding | no binding | no binding
7 | GAGLGRVIRLRIVVLRCIFLLFRVLRSAEIYES (peptide, not shown: large carriers, that construct is not described for linear peptides) [peptide number 65] | no binding | binds | no binding | no binding | no binding
8 | GPFPFDYPRWIMIVLLRGVLRSAEIYES (peptide, not shown: large carriers, that construct is not described for linear peptides) [peptide number 69] | no binding | binds | no binding | no binding | no binding
9 | GSRCIRRRISILFFVFRVLRSRRVLRSAEIYES (peptide, not shown: large carriers, that construct is not described for linear peptides) [peptide number 75] | no binding | binds | no binding | no binding | no binding
10 | GPFSEHARGHVVTICRLRLLFWLLRSAEIYES (peptide, not shown: large carriers, that construct is not described for linear peptides) [peptide number 77] | no binding | binds | no binding | binds | no binding
11 | GSGCVRIRVGIVRRMLFLRFVFLVP (peptide, not shown: large carriers, that construct is not described for linear peptides) [peptide number 40] | no binding | – | no binding | no binding | no binding
